Data: the supplement of paper PMC11316812
± gives the standard deviation of the averaged measurements.

Legend:
MCF7 = assay: percentage of EdU-negative (G0-arrested) nuclei per well, 72 h; higher = more G0 arrest; conditions: reference: sequence is the full UniProt precursor, the tested protein was the secreted form or ectodomain
hTERT-HMEC = assay: as above; conditions: reference: sequence is the full UniProt precursor, the tested protein was the secreted form or ectodomain
[1] = protein concentration 0.0225 µM
[2] = protein concentration 0.02175 µM
[3] = protein concentration 0.2175 µM
[4] = protein concentration 0.0191325 µM
[5] = protein concentration 0.191325 µM
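Further: secreted proteins added to cultured cells, EdU pulse at the end, nuclei found by Hoechst imaging, EdU status from nuclear versus surrounding ring intensity ratio, PBS as neutral control.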

“MLLLPFQLLAVLFPGGNSEHAFQGPTSFHVIQTSSFTNSTWAQTQGSGWLDDLQIHGWDSDSGTAIFLKPWSKGNFSDKEVAELEEIFRVYIFGFAREVQDFAGDFQMKYPFEIQGIAGCELHSGGAIVSFLRGALGGLDFLSVKNASCVPSPEGGSRAQKFCALIIQYQGIMETVRILLYETCPRYLLGVLNAGKADLQRQVKPEAWLSSGPSPGPGRLQLVCHVSGFYPKPVWVMWMRGEQEQQGTQLGDILPNANWTWYLRATLDVADGEAAGLSCRVKHSSLEGQDIILYWRNPTSIGSIVLAIIVPSLLLLLCLALWYMRRRSYQNIP” was tested, and the “percentage of EdU-negative” value (MCF7; [1]) was 25.9 ± 0.97%, the “percentage of EdU-negative” value (MCF7; protein concentration 0.225 µM) was 24.2 ± 1.6% and the “percentage of EdU-negative” value (hTERT-HMEC; [1]) was 5.01 ± 0.84%. The “percentage of EdU-negative” value (hTERT-HMEC; protein concentration 0.225 µM) was 6.06 ± 0.84%.

With “MLLLVTSLLLCELPHPAFLLIPEKSDLRTVAPASSLNVRFDSRTMNLSWDCQENTTFSKCFLTDKKNRVVEPRLSNNECSCTFREICLHEGVTFEVHVNTSQRGFQQKLLYPNSGREGTAAQNFSCFIYNADLMNCTWARGPTAPRDVQYFLYIRNSKRRREIRCPYYIQDSGTHVGCHLDNLSGLTSRNYFLVNGTSREIGIQFFDSLLDTKKIERFNPPSNVTVRCNTTHCLVRWKQPRTYQKLSYLDFQYQLDVHRKNTQPGTENLLINVSGDLENRYNFPSSEPRAKHSVKIRAADVRILNWSSWSEAIEFGSDDGNLGSVYIYVLLIVGTLVCGIVLGFLFKRFLRIQRLFPPVPQIKDKLNDNHEVEDEIIWEEFTPEEGKGYREEVLTVKEIT” the “percentage of EdU-negative” value (MCF7; [1]) was 23.5 ± 1.9%, the “percentage of EdU-negative” value (MCF7; protein concentration 0.225 µM) was 25.3 ± 2.3% and the “percentage of EdU-negative” value (hTERT-HMEC; [1]) was 5.11 ± 0.35%. The “percentage of EdU-negative” value (hTERT-HMEC; protein concentration 0.225 µM) was 4.81 ± 0.71%.

In the case of “MLLPKKMKLLLFLVSQMAILALFFHMYSHNISSLSMKAQPERMHVLVLSSWRSGSSFVGQLFGQHPDVFYLMEPAWHVWMTFKQSTAWMLHMAVRDLIRAVFLCDMSVFDAYMEPGPRRQSSLFQWENSRALCSAPACDIIPQDEIIPRAHCRLLCSQQPFEVVEKACRSYSHVVLKEVRFFNLQSLYPLLKDPSLNLHIVHLVRDPRAVFRSRERTKGDLMIDSRIVMGQHEQKLKKEDQPYYVMQVICQSQLEIYKTIQSLPKALQERYLLVRYEDLARAPVAQTSRMYEFVGLEFLPHLQTWVHNITRGKGMGDHAFHTNARDALNVSQAWRWSLPYEKVSRLQKACGDAMNLLGYRHVRSEQEQRNLLLDLLSTWTVPEQIH [Q8NCG5]”, the “percentage of EdU-negative” value (MCF7; protein concentration 0.006 µM) is reported as 26 ± 0.23%, the “percentage of EdU-negative” value (MCF7; protein concentration 0.06 µM) is reported as 29.1 ± 1.1% and the “percentage of EdU-negative” value (hTERT-HMEC; protein concentration 0.006 µM) is reported as 5.16 ± 0.29%. For the same sequence, the “percentage of EdU-negative” value (hTERT-HMEC; protein concentration 0.06 µM) was 4.77 ± 0.11%.

For “MLLPLLLLLPMCWAVEVKRPRGVSLTNHHFYDESKPFTCLDGSATIPFDQVNDDYCDCKDGSDEPGTAACPNGSFHCTNTGYKPLYIPSNRVNDGVCDCCDGTDEYNSGVICENTCKEKGRKERESLQQMAEVTREGFRLKKILIEDWKKAREEKQKKLIELQAGKKSLEDQVEMLRTVKEEAEKPEREAKEQHQKLWEEQLAAAKAQQEQELAADAFKELDDDMDGTVSVTELQTHPELDTDGDGALSEAEAQALLSGDTQTDATSFYDRVWAAIRDKYRSEALPTDLPAPSAPDLTEPKEEQPPVPSSPTEEEEEEEEEEEEEAEEEEEEEDSEEAPPPLSPPQPASPAEEDKMPPYDEQTQAFIDAAQEARNKFEEAERSLKDMEESIRNLEQEISFDFGPNGEFAYLYSQCYELTTNEYVYRLCPFKLVSQKPKLGGSPTSLGTWGSWIGPDHDKFSAMKYEQGTGCWQGPNRSTTVRLLCGKETMVTSTTEPSRCEYLMELMTPAACPEPPPEAPTEDDHDEL”, the “percentage of EdU-negative” value (MCF7; [2]) was 27.5 ± 0.87%, the “percentage of EdU-negative” value (MCF7; [3]) was 24.9 ± 0.62% and the “percentage of EdU-negative” value (hTERT-HMEC; [2]) was 5.19 ± 1.2%. For the same sequence, the “percentage of EdU-negative” value (hTERT-HMEC; [3]) was 5.7 ± 0.68%.

With “MLLPWATSAPGLAWGPLVLGLFGLLAASQPQAVPPYASENQTCRDQEKEYYEPQHRICCSRCPPGTYVSAKCSRIRDTVCATCAENSYNEHWNYLTICQLCRPCDPVMGLEEIAPCTSKRKTQCRCQPGMFCAAWALECTHCELLSDCPPGTEAELKDEVGKGNNHCVPCKAGHFQNTSSPSARCQPHTRCENQGLVEAAPGTAQSDTTCKNPLEPLPPEMSGTMLMLAVLLPLAFFLLLATVFSCIWKSHPSLCRKLGSLLKRRPQGEGPNPVAGSWEPPKAHPYFPDLVQPLLPISGDVSPVSTGLPAAPVLEAGVPQQQSPLDLTREPQLEPGEQSQVAHGTNGIHVTGGSMTITGNIYIYNGPVLGGPPGPGDLPATPEPPYPIPEEGDPGPPGLSTPHQEDGKAWHLAETEHCGATPSNRGPRNQFITHD” the “percentage of EdU-negative” value (MCF7; [4]) was 26.7 ± 0.76%, the “percentage of EdU-negative” value (MCF7; [5]) was 27.3 ± 0.76% and the “percentage of EdU-negative” value (hTERT-HMEC; [4]) was 5.06 ± 0.25%. For the same sequence, the “percentage of EdU-negative” value (hTERT-HMEC; [5]) was 5.55 ± 1.9%.
